This is an account of results in PMC3283256 (The Journal of Biological Chemistry, 2010).

In the assay the target is His-tagged N-WASP (rat, UniProt O08816 1-501). The assay is described as follows: pull-down.
Chain of His-tagged N-WASP (O08816 whole entry): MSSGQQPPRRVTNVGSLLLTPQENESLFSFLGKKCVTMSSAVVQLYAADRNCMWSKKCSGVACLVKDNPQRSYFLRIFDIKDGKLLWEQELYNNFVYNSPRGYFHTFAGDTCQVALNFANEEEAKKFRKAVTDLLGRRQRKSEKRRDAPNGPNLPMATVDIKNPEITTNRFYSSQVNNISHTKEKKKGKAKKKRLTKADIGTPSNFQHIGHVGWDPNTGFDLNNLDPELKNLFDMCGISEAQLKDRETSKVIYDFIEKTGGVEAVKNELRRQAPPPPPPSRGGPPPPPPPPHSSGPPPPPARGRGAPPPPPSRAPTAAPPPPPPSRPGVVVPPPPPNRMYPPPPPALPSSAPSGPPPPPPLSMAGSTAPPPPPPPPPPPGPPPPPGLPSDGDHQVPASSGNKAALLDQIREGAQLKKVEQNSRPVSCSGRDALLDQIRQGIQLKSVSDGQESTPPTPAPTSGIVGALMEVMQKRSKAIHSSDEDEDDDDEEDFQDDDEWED

B1: GST-Gas7 (natural protein, mouse, UniProt Q60780 1-421, looked up)
chain: MATALQKPGMVPPPPGEESQTVILPPGWHSYLSPQGRRYYVNTTTNETTWERPSSSPGISASPAPHRSSLPTTVNGYHASGTPAHPPETAHMSLRKSTGDSQNLGSSSPGRKQSKENTITINCVTFPHPDTMPEQQLLKPTEWSYCDYFWADKKDPQGNGTVAGFELLLQKQLKGKQMQKEMSEFIRERIKIEEEYAKNLAKLSQNSLAAQEEGSLGEAWAQVKKSLADEAEVHLKFSAKLHSEVEKPLMNFRENFKKDMKKCDHHIADLRKQLASRYASVEKARKALTERQKDLEMKTQQLEIKLSNKTEEDIKKARRKSTQAGDDLMRCVDLYNQAQSKWFEEMVTTTLELERLEVERVEMIRQHLCQYTQLRHETDMFNQSTVEPVDQLLRKVDPAKDRELWVREHKTGNIRPVDMEI
In the case of B1, the binding result is given as “binds”.

B2: GST-Gas7WW2 (domain or fragment, mouse, UniProt Q60780 1-151, looked up)
chain: MATALQKPGMVPPPPGEESQTVILPPGWHSYLSPQGRRYYVNTTTNETTWERPSSSPGISASPAPHRSSLPTTVNGYHASGTPAHPPETAHMSLRKSTGDSQNLGSSSPGRKQSKENTITINCVTFPHPDTMPEQQLLKPTEWSYCDYFWA
On to B2, for which the binding result is “binds”.
